# According to IntAct's records for PubMed 31515488:
# What was measured:
# lpxn_human LPXN = lpxn_human LPXN (UniProt O60711)
# glrx3_human GLRX3 = glrx3_human GLRX3 (UniProt O76003)
# ndor1_human NDOR1 = ndor1_human NDOR1 (UniProt Q9UHB4)
# dpolb_human POLB = dpolb_human POLB (UniProt P06746)
# pp16a_human PPP1R16A = pp16a_human PPP1R16A (UniProt Q96I34)
# echp_human EHHADH = echp_human EHHADH (UniProt Q08426)
# mal_human MAL = mal_human MAL (UniProt P21145)
# sc22a_human SEC22A = sc22a_human SEC22A (UniProt Q96IW7)
# ppla_human PLN = ppla_human PLN (UniProt P26678)
# emp3_human EMP3 = emp3_human EMP3 (UniProt P54852)
# Sequence of emp3_human EMP3 (P54852 whole entry): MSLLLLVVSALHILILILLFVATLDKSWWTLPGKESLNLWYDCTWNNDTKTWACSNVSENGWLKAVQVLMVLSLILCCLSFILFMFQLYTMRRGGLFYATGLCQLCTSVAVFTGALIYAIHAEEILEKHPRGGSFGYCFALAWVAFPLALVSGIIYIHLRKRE
# vatl_human ATP6V0C = vatl_human ATP6V0C (UniProt P27449)
# Sequence of vatl_human ATP6V0C (P27449 whole entry): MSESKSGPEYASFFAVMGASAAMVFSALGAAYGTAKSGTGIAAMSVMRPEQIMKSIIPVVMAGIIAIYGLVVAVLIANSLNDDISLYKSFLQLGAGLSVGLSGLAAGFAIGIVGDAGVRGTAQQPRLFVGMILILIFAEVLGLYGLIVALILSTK
# FAM90A1 = FAM90A1 (UniProt Q86YD7)
# Sequence of FAM90A1 (Q86YD7 whole entry): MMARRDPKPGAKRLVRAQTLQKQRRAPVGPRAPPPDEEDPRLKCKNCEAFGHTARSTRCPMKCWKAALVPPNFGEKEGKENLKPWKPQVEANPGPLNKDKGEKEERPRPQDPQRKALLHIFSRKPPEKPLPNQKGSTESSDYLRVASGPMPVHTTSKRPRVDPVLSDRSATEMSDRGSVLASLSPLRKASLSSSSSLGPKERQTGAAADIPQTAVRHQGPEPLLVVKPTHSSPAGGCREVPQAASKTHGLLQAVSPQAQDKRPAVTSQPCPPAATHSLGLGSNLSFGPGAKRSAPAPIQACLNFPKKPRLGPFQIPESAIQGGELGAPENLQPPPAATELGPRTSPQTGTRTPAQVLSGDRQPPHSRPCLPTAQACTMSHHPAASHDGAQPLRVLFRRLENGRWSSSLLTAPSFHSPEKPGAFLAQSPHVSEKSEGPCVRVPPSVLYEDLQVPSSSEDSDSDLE
# sf3a3_human SF3A3 = sf3a3_human SF3A3 (UniProt Q12874)
# mdfi_human MDFI = mdfi_human MDFI (UniProt Q99750)
# kr107_human KRTAP10-7 = kr107_human KRTAP10-7 (UniProt P60409)
# zc4h2_human ZC4H2 = zc4h2_human ZC4H2 (UniProt Q9NQZ6)
# pak1_human PAK1 = pak1_human PAK1 (UniProt Q13153)
# trip6_human TRIP6 = trip6_human TRIP6 (UniProt Q15654)
# rasf7_human RASSF7 = rasf7_human RASSF7 (UniProt Q02833)
# cep63_human CEP63 = cep63_human CEP63 (UniProt Q96MT8)
# rby1a_human RBMY1A1 = rby1a_human RBMY1A1 (UniProt P0DJD3)
# nkap1_human NKAPD1 = nkap1_human NKAPD1 (UniProt Q6ZUT1)
# aen_human AEN = aen_human AEN (UniProt Q8WTP8)
# tpp2_human TPP2 = tpp2_human TPP2 (UniProt P29144)
# lc7l2_human LUC7L2 = target: T1, lc7l2_human LUC7L2 (UniProt Q9Y383)
# T1 sequence: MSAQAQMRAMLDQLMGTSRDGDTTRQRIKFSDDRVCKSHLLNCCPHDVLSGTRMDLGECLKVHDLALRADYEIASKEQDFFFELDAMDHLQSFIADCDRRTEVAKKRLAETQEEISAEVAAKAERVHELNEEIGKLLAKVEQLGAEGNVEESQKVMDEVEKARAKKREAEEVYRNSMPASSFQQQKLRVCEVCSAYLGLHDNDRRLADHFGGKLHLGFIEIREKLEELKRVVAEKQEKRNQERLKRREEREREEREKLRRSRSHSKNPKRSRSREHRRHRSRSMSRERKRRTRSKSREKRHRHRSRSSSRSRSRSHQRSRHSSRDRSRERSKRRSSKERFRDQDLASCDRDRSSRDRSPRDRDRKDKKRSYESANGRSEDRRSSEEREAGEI
# rnps1_human RNPS1 = target: T2, rnps1_human RNPS1 (UniProt Q15287)
# T2 sequence: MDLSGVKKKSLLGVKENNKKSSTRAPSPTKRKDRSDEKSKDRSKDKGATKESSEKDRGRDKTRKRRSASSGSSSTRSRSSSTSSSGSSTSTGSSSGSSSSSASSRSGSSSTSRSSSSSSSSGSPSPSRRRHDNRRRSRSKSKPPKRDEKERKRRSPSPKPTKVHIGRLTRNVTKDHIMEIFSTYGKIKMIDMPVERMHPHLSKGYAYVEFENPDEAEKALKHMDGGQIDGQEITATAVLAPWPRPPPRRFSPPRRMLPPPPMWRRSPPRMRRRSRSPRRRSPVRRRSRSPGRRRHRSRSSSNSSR
# mfap1_human MFAP1 = mfap1_human MFAP1 (UniProt P55081)
# gpt2l_human GPATCH2L = gpt2l_human GPATCH2L (UniProt Q9NWQ4)
# scel_human SCEL = scel_human SCEL (UniProt O95171)
# frih_human FTH1 = frih_human FTH1 (UniProt P02794)
# acy3_human ACY3 = target: T3, acy3_human ACY3 (UniProt Q96HD9)
# T3 sequence: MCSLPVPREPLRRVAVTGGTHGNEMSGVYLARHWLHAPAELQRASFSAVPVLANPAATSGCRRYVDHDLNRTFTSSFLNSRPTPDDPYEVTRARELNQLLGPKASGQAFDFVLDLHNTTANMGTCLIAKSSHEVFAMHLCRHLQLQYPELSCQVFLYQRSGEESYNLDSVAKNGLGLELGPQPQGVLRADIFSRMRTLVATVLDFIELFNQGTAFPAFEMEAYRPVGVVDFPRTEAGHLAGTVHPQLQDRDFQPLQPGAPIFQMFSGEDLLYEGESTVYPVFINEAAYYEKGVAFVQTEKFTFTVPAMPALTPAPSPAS
# cryaa_human CRYAA = cryaa_human CRYAA (UniProt P02489)
# phs_human PCBD1 = phs_human PCBD1 (UniProt P61457)
# ei2ba_human EIF2B1 = ei2ba_human EIF2B1 (UniProt Q14232)
# zmat1_human ZMAT1 = zmat1_human ZMAT1 (UniProt Q5H9K5)
# dmc1_human DMC1 = target: T4, dmc1_human DMC1 (UniProt Q14565)
# T4 sequence: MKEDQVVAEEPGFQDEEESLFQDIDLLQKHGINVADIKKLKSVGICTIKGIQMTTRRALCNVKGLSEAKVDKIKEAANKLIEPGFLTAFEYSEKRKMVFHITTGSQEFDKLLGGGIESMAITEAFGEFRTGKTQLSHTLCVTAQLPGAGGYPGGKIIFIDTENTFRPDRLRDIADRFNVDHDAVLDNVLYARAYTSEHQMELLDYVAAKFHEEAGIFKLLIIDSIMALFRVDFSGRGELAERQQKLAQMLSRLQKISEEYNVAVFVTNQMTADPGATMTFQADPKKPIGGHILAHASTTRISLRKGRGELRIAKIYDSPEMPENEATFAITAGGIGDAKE
# dpyl2_human DPYSL2 = dpyl2_human DPYSL2 (UniProt Q16555)
# sufu_human SUFU = sufu_human SUFU (UniProt Q9UMX1)
# zksc4_human ZKSCAN4 = zksc4_human ZKSCAN4 (UniProt Q969J2)
# tri23_human TRIM23 = tri23_human TRIM23 (UniProt P36406)
# stk25_human STK25 = stk25_human STK25 (UniProt O00506)
# adas_human AGPS = adas_human AGPS (UniProt O00116)
# stk24_human STK24 = stk24_human STK24 (UniProt Q9Y6E0)
# ntaq1_human NTAQ1 = ntaq1_human NTAQ1 (UniProt Q96HA8)
# Sequence of Zinc finger protein 317 (Homo sapiens), Q96PQ6 Q19H (Q96PQ6 whole entry Q19H): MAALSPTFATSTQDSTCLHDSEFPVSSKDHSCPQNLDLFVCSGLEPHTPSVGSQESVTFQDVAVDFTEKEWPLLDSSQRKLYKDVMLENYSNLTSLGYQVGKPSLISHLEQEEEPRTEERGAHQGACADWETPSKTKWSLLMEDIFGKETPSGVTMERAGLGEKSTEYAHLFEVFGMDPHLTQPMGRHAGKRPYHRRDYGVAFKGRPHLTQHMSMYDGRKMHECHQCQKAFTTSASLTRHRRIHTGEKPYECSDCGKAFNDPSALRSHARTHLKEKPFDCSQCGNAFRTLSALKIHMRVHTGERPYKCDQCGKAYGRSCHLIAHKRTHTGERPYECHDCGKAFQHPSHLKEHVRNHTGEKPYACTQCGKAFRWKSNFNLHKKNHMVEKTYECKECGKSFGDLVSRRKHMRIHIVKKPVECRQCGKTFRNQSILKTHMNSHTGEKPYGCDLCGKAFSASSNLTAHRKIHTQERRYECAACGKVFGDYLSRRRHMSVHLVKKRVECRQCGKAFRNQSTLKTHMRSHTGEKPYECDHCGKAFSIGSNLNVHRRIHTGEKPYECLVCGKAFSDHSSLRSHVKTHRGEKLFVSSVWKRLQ
# Sequence of Ectodysplasin-A (Homo sapiens), Q92838 A367T (Q92838 whole entry A367T): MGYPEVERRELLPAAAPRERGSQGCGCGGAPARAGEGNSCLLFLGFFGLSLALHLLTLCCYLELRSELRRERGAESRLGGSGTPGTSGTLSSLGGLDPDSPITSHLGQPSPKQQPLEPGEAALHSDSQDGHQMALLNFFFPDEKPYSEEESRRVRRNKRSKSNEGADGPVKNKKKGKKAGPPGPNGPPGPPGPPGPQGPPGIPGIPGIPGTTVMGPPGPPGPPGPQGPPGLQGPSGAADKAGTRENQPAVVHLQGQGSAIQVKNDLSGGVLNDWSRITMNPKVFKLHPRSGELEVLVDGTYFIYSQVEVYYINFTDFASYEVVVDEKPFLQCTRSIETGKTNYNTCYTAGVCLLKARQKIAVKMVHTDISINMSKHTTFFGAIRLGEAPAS
# Sequence of Zinc finger protein 223 (Homo sapiens), Q9UK11 S357A (Q9UK11 whole entry S357A): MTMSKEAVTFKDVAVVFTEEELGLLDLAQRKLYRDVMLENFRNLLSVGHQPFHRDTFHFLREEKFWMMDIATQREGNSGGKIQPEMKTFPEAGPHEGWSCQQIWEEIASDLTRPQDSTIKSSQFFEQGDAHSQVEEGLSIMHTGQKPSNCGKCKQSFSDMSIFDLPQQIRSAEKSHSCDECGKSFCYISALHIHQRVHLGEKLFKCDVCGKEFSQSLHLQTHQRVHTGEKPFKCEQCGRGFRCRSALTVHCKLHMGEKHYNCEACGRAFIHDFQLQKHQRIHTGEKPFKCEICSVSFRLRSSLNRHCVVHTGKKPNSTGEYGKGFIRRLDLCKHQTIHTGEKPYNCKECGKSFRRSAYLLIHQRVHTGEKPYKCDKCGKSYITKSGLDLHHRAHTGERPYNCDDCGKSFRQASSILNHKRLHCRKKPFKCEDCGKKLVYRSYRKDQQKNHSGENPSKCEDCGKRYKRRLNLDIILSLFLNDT
# Sequence of Cytoplasmic protein NCK2 (Homo sapiens), O43639 E125K (O43639 whole entry E125K): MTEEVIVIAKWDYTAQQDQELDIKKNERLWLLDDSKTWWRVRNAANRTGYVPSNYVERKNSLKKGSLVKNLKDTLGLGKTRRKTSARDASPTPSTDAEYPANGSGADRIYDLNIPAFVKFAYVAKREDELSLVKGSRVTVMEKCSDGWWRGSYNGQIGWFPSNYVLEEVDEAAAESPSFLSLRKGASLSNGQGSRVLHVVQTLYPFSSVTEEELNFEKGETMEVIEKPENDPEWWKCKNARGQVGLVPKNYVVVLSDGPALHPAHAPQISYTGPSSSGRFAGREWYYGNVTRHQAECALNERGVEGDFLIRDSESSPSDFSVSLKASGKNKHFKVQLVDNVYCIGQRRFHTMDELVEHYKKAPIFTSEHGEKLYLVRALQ
# Sequence of Ectodysplasin-A (Homo sapiens), Q92838 R153H (Q92838 whole entry R153H): as the sequence (Q92838 whole entry A367T) above, with R153H, T367A counted along it
# Sequence of pp16a_human PPP1R16A (Q96I34 whole entry): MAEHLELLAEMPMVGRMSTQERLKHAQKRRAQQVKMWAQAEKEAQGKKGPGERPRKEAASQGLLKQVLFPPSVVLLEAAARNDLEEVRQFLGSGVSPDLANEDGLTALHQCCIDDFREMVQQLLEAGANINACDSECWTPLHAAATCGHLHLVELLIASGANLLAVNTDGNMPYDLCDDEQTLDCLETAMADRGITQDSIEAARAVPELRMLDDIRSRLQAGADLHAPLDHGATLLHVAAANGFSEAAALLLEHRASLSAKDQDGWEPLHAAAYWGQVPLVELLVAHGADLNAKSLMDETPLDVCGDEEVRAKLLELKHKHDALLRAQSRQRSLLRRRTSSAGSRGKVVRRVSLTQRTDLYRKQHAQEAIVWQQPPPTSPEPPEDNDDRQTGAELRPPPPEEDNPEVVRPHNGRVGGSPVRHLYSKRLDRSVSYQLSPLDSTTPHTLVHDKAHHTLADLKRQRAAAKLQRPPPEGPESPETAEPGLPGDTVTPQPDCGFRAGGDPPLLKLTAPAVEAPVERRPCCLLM
# Sequence of echp_human EHHADH (Q08426 whole entry): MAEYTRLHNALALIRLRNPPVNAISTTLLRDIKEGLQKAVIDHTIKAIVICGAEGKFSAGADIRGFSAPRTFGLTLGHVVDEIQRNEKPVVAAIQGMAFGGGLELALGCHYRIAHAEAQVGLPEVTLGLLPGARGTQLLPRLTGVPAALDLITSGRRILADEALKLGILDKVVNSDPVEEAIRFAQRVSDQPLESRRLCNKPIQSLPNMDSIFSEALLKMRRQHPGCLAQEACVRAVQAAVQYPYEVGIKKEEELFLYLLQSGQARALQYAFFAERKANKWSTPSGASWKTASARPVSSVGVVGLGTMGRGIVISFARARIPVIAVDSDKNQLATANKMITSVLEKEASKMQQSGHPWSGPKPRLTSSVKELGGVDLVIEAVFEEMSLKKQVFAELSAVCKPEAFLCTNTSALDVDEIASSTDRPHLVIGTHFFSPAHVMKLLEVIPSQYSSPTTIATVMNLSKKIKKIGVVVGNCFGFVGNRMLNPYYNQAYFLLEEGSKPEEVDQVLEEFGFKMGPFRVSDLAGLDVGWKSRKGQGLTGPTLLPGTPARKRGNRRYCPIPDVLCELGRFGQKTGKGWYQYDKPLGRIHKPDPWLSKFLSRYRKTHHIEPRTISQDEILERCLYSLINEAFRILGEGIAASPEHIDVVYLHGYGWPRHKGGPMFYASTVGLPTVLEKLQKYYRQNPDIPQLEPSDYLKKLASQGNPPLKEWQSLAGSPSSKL
# Sequence of Zinc finger protein 212 (Homo sapiens), Q9UDV6 H293Y (Q9UDV6 whole entry H293Y): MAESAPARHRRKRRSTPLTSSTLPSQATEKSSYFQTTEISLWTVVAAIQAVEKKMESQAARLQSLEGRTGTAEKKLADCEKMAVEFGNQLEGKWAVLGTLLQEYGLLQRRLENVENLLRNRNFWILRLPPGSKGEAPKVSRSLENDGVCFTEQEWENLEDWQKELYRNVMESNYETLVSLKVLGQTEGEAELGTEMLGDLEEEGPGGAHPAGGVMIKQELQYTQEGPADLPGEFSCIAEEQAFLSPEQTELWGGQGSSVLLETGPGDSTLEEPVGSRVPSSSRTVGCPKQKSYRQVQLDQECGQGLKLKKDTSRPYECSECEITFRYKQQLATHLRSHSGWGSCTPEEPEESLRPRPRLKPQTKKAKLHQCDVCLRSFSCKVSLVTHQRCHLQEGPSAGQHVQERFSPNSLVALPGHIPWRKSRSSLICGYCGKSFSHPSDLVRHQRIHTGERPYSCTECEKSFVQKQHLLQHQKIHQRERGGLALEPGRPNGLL
# Sequence of mal_human MAL (P21145 whole entry): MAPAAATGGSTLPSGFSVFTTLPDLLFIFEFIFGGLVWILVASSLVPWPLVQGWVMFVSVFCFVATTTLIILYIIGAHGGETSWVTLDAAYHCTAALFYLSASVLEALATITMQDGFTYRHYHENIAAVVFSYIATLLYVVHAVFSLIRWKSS
substance,measurement,setting,value
"Homeobox protein Hox-C9 (Homo sapiens), P31274 A122V",effect of a mutation on the interaction,lpxn_human LPXN,with no effect
"Anamorsin (Homo sapiens), Q6FI81 A34E",effect of a mutation on the interaction,glrx3_human GLRX3,with no effect
same,effect of a mutation on the interaction,ndor1_human NDOR1,disrupting interaction strength
"Tripeptidyl-peptidase 2 (Homo sapiens), P29144 V1121I",effect of a mutation on the interaction,dpolb_human POLB,with no effect
same,effect of a mutation on the interaction,pp16a_human PPP1R16A,with no effect
same,effect of a mutation on the interaction,echp_human EHHADH,with no effect
"Tripeptidyl-peptidase 2 (Homo sapiens), P29144 T998R",effect of a mutation on the interaction,dpolb_human POLB,with no effect
same,effect of a mutation on the interaction,pp16a_human PPP1R16A,with no effect
same,effect of a mutation on the interaction,echp_human EHHADH,with no effect
"Ectodysplasin-A (Homo sapiens), Q92838 R153H",effect of a mutation on the interaction,mal_human MAL,with no effect
same,effect of a mutation on the interaction,sc22a_human SEC22A,with no effect
same,effect of a mutation on the interaction,ppla_human PLN,with no effect
same,effect of a mutation on the interaction,emp3_human EMP3,with no effect
same,effect of a mutation on the interaction,vatl_human ATP6V0C,with no effect
"Zinc finger protein 212 (Homo sapiens), Q9UDV6 E225K",effect of a mutation on the interaction,FAM90A1,with no effect
same,effect of a mutation on the interaction,sf3a3_human SF3A3,with no effect
"Zinc finger protein 223 (Homo sapiens), Q9UK11 S357A",effect of a mutation on the interaction,mdfi_human MDFI,with no effect
same,effect of a mutation on the interaction,kr107_human KRTAP10-7,with no effect
same,effect of a mutation on the interaction,zc4h2_human ZC4H2,with no effect
"Cytoplasmic protein NCK2 (Homo sapiens), O43639 E125K",effect of a mutation on the interaction,pak1_human PAK1,with no effect
same,effect of a mutation on the interaction,trip6_human TRIP6,with no effect
same,effect of a mutation on the interaction,rasf7_human RASSF7,with no effect
"Histone-lysine N-methyltransferase EZH2 (Homo sapiens), Q15910 M439T",effect of a mutation on the interaction,cep63_human CEP63,disrupting interaction strength
"Zinc finger protein 317 (Homo sapiens), Q96PQ6 Q19H",effect of a mutation on the interaction,rby1a_human RBMY1A1,with no effect
same,effect of a mutation on the interaction,nkap1_human NKAPD1,with no effect
same,effect of a mutation on the interaction,aen_human AEN,with no effect
DNA polymerase beta (Homo sapiens) (from UniProt P06746) P242R,effect of a mutation on the interaction,tpp2_human TPP2,with no effect
Serine/arginine-rich splicing factor 6 (Homo sapiens) (from UniProt Q13247-1) R145Q,effect of a mutation on the interaction,lc7l2_human LUC7L2,with no effect
same,effect of a mutation on the interaction,rnps1_human RNPS1,with no effect
"Zinc finger protein 398 (Homo sapiens), Q8TD17 V252M",effect of a mutation on the interaction,mfap1_human MFAP1,with no effect
same,effect of a mutation on the interaction,gpt2l_human GPATCH2L,with no effect
"RNA-binding protein FXR2 (Homo sapiens), P51116 R483Q",effect of a mutation on the interaction,scel_human SCEL,with no effect
same,effect of a mutation on the interaction,frih_human FTH1,with no effect
Golgi reassembly-stacking protein 2 (Homo sapiens) (from UniProt Q9H8Y8) T415M,effect of a mutation on the interaction,acy3_human ACY3,with no effect
same,effect of a mutation on the interaction,cryaa_human CRYAA,with no effect
same,effect of a mutation on the interaction,phs_human PCBD1,with no effect
same,effect of a mutation on the interaction,ei2ba_human EIF2B1,with no effect
same,effect of a mutation on the interaction,zmat1_human ZMAT1,with no effect
same,effect of a mutation on the interaction,dmc1_human DMC1,with no effect
same,effect of a mutation on the interaction,dpyl2_human DPYSL2,with no effect
"Zinc finger protein 747 (Homo sapiens), Q9BV97 G28R",effect of a mutation on the interaction,sufu_human SUFU,with no effect
"Ectodysplasin-A (Homo sapiens), Q92838 A367T",effect of a mutation on the interaction,mal_human MAL,with no effect
same,effect of a mutation on the interaction,sc22a_human SEC22A,with no effect
same,effect of a mutation on the interaction,ppla_human PLN,with no effect
same,effect of a mutation on the interaction,emp3_human EMP3,with no effect
same,effect of a mutation on the interaction,vatl_human ATP6V0C,with no effect
"Calcium-binding protein 5 (Homo sapiens), Q9NP86 E140K",effect of a mutation on the interaction,zksc4_human ZKSCAN4,with no effect
"FAD synthase (Homo sapiens), Q8NFF5 R437H",effect of a mutation on the interaction,tri23_human TRIM23,with no effect
"Programmed cell death protein 10 (Homo sapiens), Q9BUL8 M92V",effect of a mutation on the interaction,stk25_human STK25,with no effect
"Zinc finger protein 212 (Homo sapiens), Q9UDV6 H293Y",effect of a mutation on the interaction,FAM90A1,with no effect
same,effect of a mutation on the interaction,sf3a3_human SF3A3,with no effect
"Golgi reassembly-stacking protein 1 (Homo sapiens), Q9BQQ3 T425M",effect of a mutation on the interaction,adas_human AGPS,with no effect
"Programmed cell death protein 10 (Homo sapiens), Q9BUL8 M20V",effect of a mutation on the interaction,stk24_human STK24,with no effect
"Argininosuccinate lyase (Homo sapiens), P04424 R12Q",effect of a mutation on the interaction,ntaq1_human NTAQ1,with no effect
